The supplement of paper PMC10567573

B1: PTPRD (parent)
chain: ELDELLKEISRKRRSIRYGREVEL

Variants of: B1
Experiment: protein stability index of a GFP-peptide fusion (GPS, HEK-293T) (PSI 1-6); higher = more stable
Settings: c terminus: a fixed tail appended
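Note: lentivirally expressed fusions sorted by FACS into six bins by GFP to DsRed ratio, PSI derived from sequencing read proportions per bin multiplied by bin number.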

Q: For ELDELDKEISRKRRSIRYGREVEL, which protein stability index is on record?
A: The protein stability index was 4.29.

Q: For ELDELEKEISRKRRSIRYGREVEL, which protein stability index is on record?
A: Its protein stability index is 4.28.

Q: For ELDELFKEISRKRRSIRYGREVEL, which protein stability index is on record?
A: The protein stability index was 2.07.

Q: With ELDELGKEISRKRRSIRYGREVEL as the variant, how does the protein stability index read?
A: Its protein stability index is 4.21.

Q: With ELDELHKEISRKRRSIRYGREVEL as the variant, how does the protein stability index read?
A: The protein stability index was 3.19.

Q: Which protein stability index does the source give for ELDELIKEISRKRRSIRYGREVEL here?
A: The protein stability index was 1.93.

Q: Which protein stability index does the source give for ELDELKKEISRKRRSIRYGREVEL here?
A: The protein stability index was 3.92.

Q: With ELDELMKEISRKRRSIRYGREVEL as the variant, how does the protein stability index read?
A: Its protein stability index is 2.68.

Q: With ELDELNKEISRKRRSIRYGREVEL as the variant, how does the protein stability index read?
A: The protein stability index was 3.81.

Q: With ELDELPKEISRKRRSIRYGREVEL as the variant, how does the protein stability index read?
A: Its protein stability index is 4.08.

Q: For ELDELQKEISRKRRSIRYGREVEL, which protein stability index is on record?
A: Its protein stability index is 3.73.

Q: With ELDELRKEISRKRRSIRYGREVEL as the variant, how does the protein stability index read?
A: The protein stability index was 3.76.

Q: For ELDELSKEISRKRRSIRYGREVEL, which protein stability index is on record?
A: Its protein stability index is 3.98.

Q: Which protein stability index does the source give for ELDELTKEISRKRRSIRYGREVEL here?
A: Its protein stability index is 3.92.

Q: With ELDELVKEISRKRRSIRYGREVEL as the variant, how does the protein stability index read?
A: The protein stability index was 3.8.

Q: Which protein stability index does the source give for ELDELWKEISRKRRSIRYGREVEL here?
A: Its protein stability index is 1.5.

Q: For ELDELYKEISRKRRSIRYGREVEL, which protein stability index is on record?
A: Its protein stability index is 2.71.

Q: Which protein stability index does the source give for ELDELLAEISRKRRSIRYGREVEL here?
A: The protein stability index was 2.83.

Q: Which protein stability index does the source give for ELDELLCEISRKRRSIRYGREVEL here?
A: The protein stability index was 2.33.

Q: For ELDELLDEISRKRRSIRYGREVEL, which protein stability index is on record?
A: Its protein stability index is 3.25.

Q: With ELDELLEEISRKRRSIRYGREVEL as the variant, how does the protein stability index read?
A: The protein stability index was 3.1.

Q: Which protein stability index does the source give for ELDELLFEISRKRRSIRYGREVEL here?
A: The protein stability index was 2.

Q: With ELDELLGEISRKRRSIRYGREVEL as the variant, how does the protein stability index read?
A: The protein stability index was 2.54.

Q: For ELDELLHEISRKRRSIRYGREVEL, which protein stability index is on record?
A: Its protein stability index is 2.4.

Q: Which protein stability index does the source give for ELDELLIEISRKRRSIRYGREVEL here?
A: The protein stability index was 2.27.

Q: With ELDELLLEISRKRRSIRYGREVEL as the variant, how does the protein stability index read?
A: Its protein stability index is 2.72.

Q: For ELDELLMEISRKRRSIRYGREVEL, which protein stability index is on record?
A: The protein stability index was 2.26.

Q: Which protein stability index does the source give for ELDELLNEISRKRRSIRYGREVEL here?
A: The protein stability index was 2.16.

Q: With ELDELLPEISRKRRSIRYGREVEL as the variant, how does the protein stability index read?
A: The protein stability index was 3.12.

Q: For ELDELLQEISRKRRSIRYGREVEL, which protein stability index is on record?
A: The protein stability index was 2.46.

Q: With ELDELLREISRKRRSIRYGREVEL as the variant, how does the protein stability index read?
A: Its protein stability index is 2.27.

Q: Which protein stability index does the source give for ELDELLSEISRKRRSIRYGREVEL here?
A: Its protein stability index is 2.6.

Q: With ELDELLTEISRKRRSIRYGREVEL as the variant, how does the protein stability index read?
A: The protein stability index was 3.09.

Q: Which protein stability index does the source give for ELDELLVEISRKRRSIRYGREVEL here?
A: The protein stability index was 2.07.

Q: For ELDELLWEISRKRRSIRYGREVEL, which protein stability index is on record?
A: The protein stability index was 2.19.

Q: With ELDELLYEISRKRRSIRYGREVEL as the variant, how does the protein stability index read?
A: Its protein stability index is 2.77.

Q: For ELDELLKAISRKRRSIRYGREVEL, which protein stability index is on record?
A: Its protein stability index is 1.68.

Q: For ELDELLKCISRKRRSIRYGREVEL, which protein stability index is on record?
A: The protein stability index was 1.83.

Q: For ELDELLKDISRKRRSIRYGREVEL, which protein stability index is on record?
A: The protein stability index was 2.92.

Q: With ELDELLKFISRKRRSIRYGREVEL as the variant, how does the protein stability index read?
A: The protein stability index was 2.

Q: For ELDELLKGISRKRRSIRYGREVEL, which protein stability index is on record?
A: The protein stability index was 2.86.

Q: For ELDELLKHISRKRRSIRYGREVEL, which protein stability index is on record?
A: Its protein stability index is 1.99.

Q: For ELDELLKIISRKRRSIRYGREVEL, which protein stability index is on record?
A: Its protein stability index is 2.83.

Q: For ELDELLKKISRKRRSIRYGREVEL, which protein stability index is on record?
A: The protein stability index was 3.79.

Q: Which protein stability index does the source give for ELDELLKLISRKRRSIRYGREVEL here?
A: Its protein stability index is 2.03.

Q: With ELDELLKMISRKRRSIRYGREVEL as the variant, how does the protein stability index read?
A: The protein stability index was 2.37.

Q: With ELDELLKNISRKRRSIRYGREVEL as the variant, how does the protein stability index read?
A: Its protein stability index is 2.44.

Q: Which protein stability index does the source give for ELDELLKPISRKRRSIRYGREVEL here?
A: The protein stability index was 2.77.

Q: Which protein stability index does the source give for ELDELLKQISRKRRSIRYGREVEL here?
A: The protein stability index was 2.81.

Q: With ELDELLKRISRKRRSIRYGREVEL as the variant, how does the protein stability index read?
A: Its protein stability index is 2.54.

Q: With ELDELLKSISRKRRSIRYGREVEL as the variant, how does the protein stability index read?
A: Its protein stability index is 2.45.

Q: With ELDELLKTISRKRRSIRYGREVEL as the variant, how does the protein stability index read?
A: Its protein stability index is 2.79.

Q: Which protein stability index does the source give for ELDELLKVISRKRRSIRYGREVEL here?
A: Its protein stability index is 1.7.

Q: For ELDELLKWISRKRRSIRYGREVEL, which protein stability index is on record?
A: The protein stability index was 2.64.

Q: Which protein stability index does the source give for ELDELLKYISRKRRSIRYGREVEL here?
A: The protein stability index was 1.88.

Q: With ELDELLKEASRKRRSIRYGREVEL as the variant, how does the protein stability index read?
A: Its protein stability index is 3.14.

Q: For ELDELLKECSRKRRSIRYGREVEL, which protein stability index is on record?
A: The protein stability index was 2.54.

Q: With ELDELLKEDSRKRRSIRYGREVEL as the variant, how does the protein stability index read?
A: Its protein stability index is 3.98.

Q: For ELDELLKEESRKRRSIRYGREVEL, which protein stability index is on record?
A: Its protein stability index is 4.46.

Q: With ELDELLKEFSRKRRSIRYGREVEL as the variant, how does the protein stability index read?
A: The protein stability index was 2.33.

Q: Which protein stability index does the source give for ELDELLKEGSRKRRSIRYGREVEL here?
A: The protein stability index was 3.57.

Q: Which protein stability index does the source give for ELDELLKEHSRKRRSIRYGREVEL here?
A: Its protein stability index is 3.09.

Q: For ELDELLKEKSRKRRSIRYGREVEL, which protein stability index is on record?
A: The protein stability index was 3.96.

Q: With ELDELLKELSRKRRSIRYGREVEL as the variant, how does the protein stability index read?
A: Its protein stability index is 2.21.

Q: For ELDELLKEMSRKRRSIRYGREVEL, which protein stability index is on record?
A: Its protein stability index is 2.64.

Q: With ELDELLKENSRKRRSIRYGREVEL as the variant, how does the protein stability index read?
A: The protein stability index was 3.35.

Q: With ELDELLKEPSRKRRSIRYGREVEL as the variant, how does the protein stability index read?
A: Its protein stability index is 3.81.

Q: For ELDELLKEQSRKRRSIRYGREVEL, which protein stability index is on record?
A: Its protein stability index is 4.18.

Q: Which protein stability index does the source give for ELDELLKERSRKRRSIRYGREVEL here?
A: Its protein stability index is 3.72.

Q: For ELDELLKESSRKRRSIRYGREVEL, which protein stability index is on record?
A: Its protein stability index is 3.62.

Q: Which protein stability index does the source give for ELDELLKETSRKRRSIRYGREVEL here?
A: The protein stability index was 3.97.

Q: Which protein stability index does the source give for ELDELLKEVSRKRRSIRYGREVEL here?
A: Its protein stability index is 2.61.

Q: With ELDELLKEWSRKRRSIRYGREVEL as the variant, how does the protein stability index read?
A: The protein stability index was 2.89.

Q: With ELDELLKEYSRKRRSIRYGREVEL as the variant, how does the protein stability index read?
A: Its protein stability index is 2.63.

Q: With ELDELLKEIARKRRSIRYGREVEL as the variant, how does the protein stability index read?
A: The protein stability index was 2.44.

Q: With ELDELLKEICRKRRSIRYGREVEL as the variant, how does the protein stability index read?
A: Its protein stability index is 3.15.

Q: Which protein stability index does the source give for ELDELLKEIDRKRRSIRYGREVEL here?
A: Its protein stability index is 2.87.

Q: Which protein stability index does the source give for ELDELLKEIERKRRSIRYGREVEL here?
A: The protein stability index was 2.84.

Q: With ELDELLKEIFRKRRSIRYGREVEL as the variant, how does the protein stability index read?
A: Its protein stability index is 1.78.

Q: With ELDELLKEIGRKRRSIRYGREVEL as the variant, how does the protein stability index read?
A: Its protein stability index is 2.44.

Q: For ELDELLKEIHRKRRSIRYGREVEL, which protein stability index is on record?
A: Its protein stability index is 2.68.

Q: With ELDELLKEIIRKRRSIRYGREVEL as the variant, how does the protein stability index read?
A: Its protein stability index is 2.09.

Q: With ELDELLKEIKRKRRSIRYGREVEL as the variant, how does the protein stability index read?
A: Its protein stability index is 2.17.

Q: Which protein stability index does the source give for ELDELLKEILRKRRSIRYGREVEL here?
A: The protein stability index was 1.41.

Q: For ELDELLKEIMRKRRSIRYGREVEL, which protein stability index is on record?
A: Its protein stability index is 2.24.

Q: For ELDELLKEINRKRRSIRYGREVEL, which protein stability index is on record?
A: The protein stability index was 2.77.

Q: For ELDELLKEIPRKRRSIRYGREVEL, which protein stability index is on record?
A: Its protein stability index is 3.01.

Q: With ELDELLKEIQRKRRSIRYGREVEL as the variant, how does the protein stability index read?
A: The protein stability index was 2.2.

Q: Which protein stability index does the source give for ELDELLKEIRRKRRSIRYGREVEL here?
A: Its protein stability index is 2.48.

Q: For ELDELLKEITRKRRSIRYGREVEL, which protein stability index is on record?
A: Its protein stability index is 2.49.

Q: With ELDELLKEIVRKRRSIRYGREVEL as the variant, how does the protein stability index read?
A: Its protein stability index is 2.48.

Q: With ELDELLKEIWRKRRSIRYGREVEL as the variant, how does the protein stability index read?
A: Its protein stability index is 1.48.

Q: For ELDELLKEIYRKRRSIRYGREVEL, which protein stability index is on record?
A: The protein stability index was 2.06.

Q: With ELDELLKEISAKRRSIRYGREVEL as the variant, how does the protein stability index read?
A: Its protein stability index is 2.01.
